Measured values from the DeepSol protein solubility set.

Assay: soluble on expression in E. coli; label from the status in PepcDB or PDB records
For “MSLNGGVTELSVWSGFTENDGKVVQSIADDFNKSQSNVKVTIEQNPWNVINDKLLSSISAGNGPDVVTYQPDGAKGFIKQGAIVSTDDFYSDSSNETSHYRKNVVKDGEVDGKHYGVPMGHAPYSVYFNKAIFDAAGITEDQYPKTWDDLAALASKLTVDKDGDGTPDQYGIALADKDAGYLPIFLQGAGTDLVVDGKANLTSKKSKDTLTWIRDNFYAKKSSPSNLSLVDAQTLFCSGKAAMFWIGPWIVNAAKEKGIETGTFEMPKGPEKQVTEVAANYWYTTSQVDGNDAKKKAAYAWMKFFNNKKNQITWAVKANYPPNRTDVTADDMKSNNFVSQISPYMDHSSLLLGSVPSGFADVQSELNALGPKISESTGDLTDILQKSNDKIQGYIEEGHHHHHH”, the “soluble on expression in E. coli” value was “soluble”. In the case of “MAHHHHHHMSLHKEICNYIVKFSSKPVQRLGYEPPKKKRSILRELYHKLIFPYYFKFIRAPYERWQFCATTKFLREHGLMYDDMYSDKDPVIERAISLLPKDIQTRRYRRMLRGTHINYLRLFLHPSEQNYDPYIPYLAPYIEEAKFQLQEEEELLGYHPYDRRLYSGGTTGFGDLEPGLHFLVSIPNLYGAAIPHSKKK”, the “soluble on expression in E. coli” value is reported as “soluble”. With “MKEESRAKTGRKPKSDPADYKYSFRLNAGENMRFEKLVTESEAKDKTRFIKKAIFGGTIKVVKIDKATMDYYIRLTEFHRQFQTIGNNYNQVVRAIRSNFGEKRAMSLLYKLEKMTLELMLLTKKVIALTEEYQKKWLQK” the “soluble on expression in E. coli” value was “not soluble”. For “MYKIMPLKVAEISVPLGVTIMMGDMRVMATGPVYVWVIDGGDEKIVVDSGVEEAKNGMFHGFPGKGGGEKGLREAMEKVNLKPEDVDKLIITHLHFDHAANAKLFTNARIYVQKREWESALNPPLHYRQTYDSSMLYPLEEMDLCLIDGDVEIAEGVKAVLLPGHTKGLQGVAVETEKGTYLLAADHFYTYFNFFPPKQPIQMTDTAGNTVEIPTSPLPFLPPGLHVDLSEWYESCFKALSVAKKANILPGHDPSLEGRVFPLEHHHHHH”, the “soluble on expression in E. coli” value was “not soluble”. In the case of “MSLKKIILSIILISNYCYASDCFEITGKAYNIDPLILKAIAWNESKCKSGIKSKTNKNGTYDIGIMQINSSHLDLLSKFNISEDDLLNDACINISVAGYILASNIKSRGNTWDAVGAYNAGYFNTPNAVELRRQYAMKIYKTYNKLKNNEQIIDEGHHHHHH”, the “soluble on expression in E. coli” value is reported as “not soluble”. For “MTSTSFATIELLHDPRGFATLWLNRADKNNAFNAQMIRELILALDQVQGNAGLRFLLIRGRGRHFSAGADLAWMQQAADLDYNTNLDDARELAELMYNLARLKIPTLAVVQGAAFGGALGLISCCDMAIAAEDAQFCLSEVRIGLAPAVISPFVVQAIGERATRRYALTAERFDGRQARHIGLIAECYPVADLEHQTLGWIDNLLLNSPQAMRISKELLREVGSGELTPALRRYCESAIARIRTSAEGQEGLRAFLQKRTPGWQQRDDEPAALEDRQKDSQR”, the “soluble on expression in E. coli” value was “not soluble”. In the case of “MAHHHHHHMGKAAKGRTAMPGKLDTTEADKRTPKSIIIYRGEVGIHVRSLMHEWRNVFLPWSSKKLHGKNKSLKDFLAVAATFSASHLQLFTAPSQGTSLRIMRFFNGPTLSFRVLSFTLHKEIVAKQRRPVAVDRAAWEVAPIVVLNNFTHPDLAHRAEVPLLTATFKALFPSLNVQTIQSSEIQRICLFHYDHVEHVVEVRHYYINARTVGVTKTVKKLLENRRPTKLGTLESIDEVLDREDAWSDTDG”, the “soluble on expression in E. coli” value is reported as “not soluble”. With “MKANSDELQSFVSVVDSGSISAAAEQMGLTASAVSRTLSRLEHKLGTTLLNRTTRRMELTEEGRYFLDQARQILQQMEALEERLALRRQSPAGRLRINAASPFMLHAVVPHIGEFRRLYPDIQLELNTNDLIIDLLEQRTDVAIRIGALSDSTLHARPLGASRLHILASPEYLARHGTPASIEGLRGHTLLGFTQPEHLNRWPVVHADGDRLEIQPDISASSGETLRQLALSHQGIACLASFMTDRDIQDGRLVPLFAEQMSEYRQPIHAVYYRNSQLALRIQCFLDFIQQRLGA” the “soluble on expression in E. coli” value was “not soluble”. With “MRPMPTDDINSRIAELEADNRRLRQLLDKRDAPGELRHRLRSTVAMLRTIIRKSASKRHSLDTYVGHLEDRLDALMRAQAIADEQGAIDFHKLLADELLHYQARDGERVTFAGPDLHLQARAGQVLALAVHELAVNAVEHGALGGDGTIDIRWSVAGAGPAPLLTFVWKETDTAPVAEPSHHGFGTEVLTRTLEYELKAKTDLAFEPDGLRCTIRFPLSERVDGSQAG” the “soluble on expression in E. coli” value was “not soluble”. With “MKTTLLSAVLASTLLVCAPATVLAQPATSSAPAAQGAATKTVIDSSTRILSTLDQRRAEFRGNPAALRQYINGELNKAFDRDYSARLVLGVHGRGASDADVKLFADALAENLMQRYGTALLNFEGKPTFRAKSESALPGNRGVKVSTDLLRAGNDPTPVDYLMRNSGGQWKIFDVMIEGISYVQTFKTQFDGPLREKGIAKVAADLRSGNLQVGATPANGQLEHHHHHH” the “soluble on expression in E. coli” value was “soluble”. With “MGSDKIHHHHHHMRKMRKASRLFEIIQILRLARQPVTAAMIAERLEVTIRSIYRDIAALQAMRVPIEGGRGIGYILRPGFDLPPLMFSIEEMEAIVLSLALLERTGDDELKQAAKRVSSKIAGAVPPPLRQTFDANALHAWGFAAPSAGTIDLALVRRAIRDEEKLDLSYRDEAGRTTQRIIRPIALIYYAEAVNTVAWCELRQAIRNFRSDRIEGCQPTGLHFKGEGDRLRQIWVEGWETPAVGG” the “soluble on expression in E. coli” value was “not soluble”. With “MMFLRQEDFATVVRSTPLVSLDFIVENSRGEFLLGKRTNRPAQGYWFVPGGRVQKDETLEAAFERLTMAELGLRLPITAGQFYGVWQHFYDDNFSGTDFTTHYVVLGFRFRVSEEELLLPDEQHDDYRWLTSDALLASDNVHANSRAYFLAEKRTGVPGL” the “soluble on expression in E. coli” value was “soluble”. For “MGRKVKPLASMKKHLTNDERDQRKDAEKALFDYPSLDLTPPDWLHDRALTEWQRVAPYLKANTPISELDRAMLASYCRAYATVQTCENDIRKNGLVQTNQKSGVRKPNPYVALQSQAMKDVKALANDLGMSLSSRARMELNKQKDETPEDTFEAMLS”, the “soluble on expression in E. coli” value was “not soluble”. With “MGSDKIHHHHHHMIYISKEINTPLYDQIYRQIQGDIISGNLSPGTLLPGIRTLAKTLGVARNTVDKAYTQLAVEGYIIPRKGAGFAVESIRDSKKSAELQPLSSGVSAHPGHEKAEKKLPYDFQYGSFPEEYFPKTAWKKHMLEVLALPHLSAQMTQYQDKQGNLSLRCELQNYLYQTRGVVCTEDQILIGCGLHYSLDTLCKLFAGHKRIAMEEPGYNGAKEVFQNNGFTIRHIPSTPYGLDLSQLKTLAVPIVYVTPSHQFPYGTVLPISKRRELLEWAAEENAYIIEDDYDSEYRYDANPIPSLQSIDGHDRVIYIGTFSKSLSPSLRINYMVLPKSLLPAYHQMFSTYSSPVTWLTQEVLASFLRSGDYTRHVRRMCAAYRKRHDVFVQQLSQHFGPNIVLHGQGAGLHFLVEFAEEVEAEGLIQMAEEAGVRVYPVTPFWSASEACPPNLLFAGYSLLNERQIQEGLRLLKEVWAPVLEIK” the “soluble on expression in E. coli” value was “not soluble”. For “MIPLLGIISLSLNISGPKYRLEMGLGGKVAVDSTFSNEGVQKATEPNGTKVTYYYGGESKGFIEFSSDWKLKINEKCDINFGPRIKLLNISHIAKNIFFFLGITAGAGFEFNYNIRENVKFYTGIDGLIGMGTFMNLNNSSSKDTESKKISVIYDFIPESNVTVGTKINDKYNVGLFVDILQGYFGLKAGYTF”, the “soluble on expression in E. coli” value was “not soluble”. With “MGSDKIHHHHHHMQGDKHRRRVPFASRAEAHARYGAILTEANRHGAQVVLATLAELGRLDLFFLLVVLLKRKDADNDWCFARCREVAASPDGHLDLWAREHYKSTIITFALTIQDILCTPDITVGIFSHSRPGAKAFLQQIKREFEENPVLRAAYPDVLWDNPRTDAPQWSLDGGIVVKRASNPKEATVEAWGLVDGQPIGKHFSLLVYDDVVTPESVTTPDQIRKTTDALAVSYNLGAHGGRRRFIGTRYHFSDTYKDILDRETAVPRIYPATVDGSVTGLPHFLSPEALAAKRRDMGPYIFGCQMLQNPKADDAAGFKAEWLRYWEPSRDLCERMNRYIIVDPAHSKKAAADYTVMWVVGFGADGYRYVIEGVRDRLNLAERTRELFRLVRAHRPLCVGYERYGLQADVEHIRGEQDRTGYHFDIVELGGAMPKADRIRRLVPLFEQGRIFLPGRMSYRDVEGRWRDLTGEFVQEEYLAFPVCGHDDMLDCLARQVDEALGAVFPDEDDYAASVGGMPNDPHAGALTSLGFDDYDPLGHMRASS” the “soluble on expression in E. coli” value was “not soluble”. With “MPQDSSQGRPRGDDVWVAEAKYDCNTRGRNSIMGNGALKYRTESKNFFNLIPEEVFHNTMKYLDLFLRNLRNIII” the “soluble on expression in E. coli” value was “not soluble”. For “MRREILVAAAILLDSRGRVLLVGNDWGRRGRVRYTLPGGTVEPGETAVEALVREVREETGLRVRSVEHLAYVIQVEDRRKNERTLAMAFRATYEGLLNPRDPDGHIVEARFFTLEEVEERLKGHLPLLEPLRAYLRGERGRFYAYAGWHAPGVVV”, the “soluble on expression in E. coli” value was “soluble”. In the case of “MTSAYFGVAGGSNTGAQSAYFGVGGGPAGGGGGASKVGGGAAPPPGTSVYMGAGGGGGGGGAQSAYFAVGGAPVGGAPAAVSIGAPPPAGGGGASTMTALGGAPSGASTMTAVGGAPRGASTMTAVGGVPSGASTMTAVGGAPTGASTMTAVGGAPTGASPMTAFGGAPTGASTMTAVGGAPTGASTMTAVGGAPTGASTMTAVGGAPTGASTMTAVGGAPTGASTMTAVGGVPTGASTMTAIGGAPSGASTMTAVGGAPRGASTMTAVGGAPTGASTMTAVGAAPGGASTMTAVGGAPRGASTMTAVGAPGGGASALGAAPPAGSMSGGGGGATSGYFGVGQGVMGGGGAVGQSAYFGVGGGAAGGAKTGGGGGGGIPGQSMYMGAGGGGGAGGGATSAYFAPK”, the “soluble on expression in E. coli” value is reported as “not soluble”. For “MGGSHHHHHHGMASPLLTQQIQDEDDQYSLVASLDNVRNLSTILKAIHFREHATCFATKNGIKVTVENAKCVQANAFIQAGIFQEFKVQEESVTFRINLTVLLDCLSIFGSSPMPGTLTALRMCYQGYGYPLMLFLEEGGVVTVCKITTQEPEETLDFDFCSTNVINKIILQSEGLREAFSELDMTSEVLQITMSPDKPYFRLSTFGNAGSSHLDYPKDSDLMEAFHCNQTQVNRYKISLLKPSTKALVLSCKVSIRTDNRGFLSLQYMIRNEDGQICFVEYYCCPDEEVPESES”, the “soluble on expression in E. coli” value was “not soluble”. In the case of “MSLKPLSSPLQQYWQTVVERLPEPLAEESLSAQAKSVLTFSDFVQDSVIAHPEWLTELESQPPQADEWQHYAAWLQEALCNVSDEAGLMRELRLFRRRIMVRIAWAQTLALVTEESILQQLSYLAETLIVAARDWLYDACCREWGTPCNAQGEAQPLLILGMGKLGGGELNFSSDIDLIFAWPEHGCTQGGRRELDNAQFFTRMGQRLIKVLDQPTQDGFVYRVDMRLRPFGESGPLVLSFAALEDYYQEQGRDWERYAMVKARIMGDSEGVYANELRAMLRPFVFRRYIDFSVIQSLRNMKGMIAREVRRRGLTDNIKLGAGGIREIEFIVQVFQLIRGGREPSLQSRSLLPTLSAIAELHLLSENDAEQLRVAYLFLRRLENLLQSINDEQTQTLPSDELNRARLAWAMDFADWPQLTGALTAHMTNVRRVFNELIGDDESETQEESLSEQWRELWQDALQEDDTTPVLAHLSEDDRKQVLTLIADFRKELDKRTIGPRGRQVLDHLMPHLLSDVCAREDAAVLSRITALLVGIVTRTTYLELLSEFPAALKHLISLCAASPMIASQLARYPLLLDELLDPNTLYQPTATDAYRDELRQYLLRVPEDDEEQQLEALRQFKQAPVLRIAAADIAGTLPVMKVSDHLTWLAEAMIDAVVQQAWVQMVARYGKPNHLNEREGRGFAVVGYGKLGGWELGYSSDLDLIFLHDCPMDAMTDGEREIDGRQFYLRLAQRIMHLFSTRTSSGILYEVDARLRPSGAAGMLVTSAEAFADYQKNEAWTWEHQALVRARVVYGDPQLTAHFDAVRREIMTLPREGKTLQTEVREMREKMRAHLGNKHRDRFDIKADEGGITDIEFITQYLVLRYAHEKPKLTRWSDNVRILELLAQNDIMEEQEAMALTRAYTTLRDELHHLALQELPGHVSEDCFTAERELVRASWQKWLVEEEGHHHHHH”, the “soluble on expression in E. coli” value is reported as “soluble”.
